Laboratory results from patent US20240190975A1.

Target: human CCR8 (human) (UniProt P51685)
Test: cell-based or functional assay

UniProt P51685, sequence (P51685 whole entry): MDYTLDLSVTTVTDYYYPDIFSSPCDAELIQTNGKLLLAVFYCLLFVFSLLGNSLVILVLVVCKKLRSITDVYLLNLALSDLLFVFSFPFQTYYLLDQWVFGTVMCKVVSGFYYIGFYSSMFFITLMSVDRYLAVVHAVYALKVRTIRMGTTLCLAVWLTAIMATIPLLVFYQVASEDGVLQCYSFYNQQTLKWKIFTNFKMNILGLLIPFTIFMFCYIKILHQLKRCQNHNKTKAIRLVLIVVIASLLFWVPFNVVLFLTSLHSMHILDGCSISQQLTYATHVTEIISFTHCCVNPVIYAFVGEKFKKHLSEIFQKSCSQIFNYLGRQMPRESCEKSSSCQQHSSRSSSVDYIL

## anti-human CCR8 antibody (clone name: L263G8, BioLegend, Inc.)
  inhibition of the cytotoxic activity of aCCR8-2-CAR-12-expressing KHYG-1 cells against ATN-1 cells (calcein), antibody at 33 nM added 10 minutes before the effector cells: > 50%
